Measurements reported in patent publication US20210008207A1 (TECHNISCHE UNIVERSIT T M NCHEN, published 2021).

T1: recombinant human CEACAM1 N-domain (C1ND; residues 35-142) with C-terminal Strep-Tag II, made in Expi293 cells (human, UniProt P13688 35-142, N-glycosylated (three glycosylation forms beside the non-glycosylated protein))
T1 construct: range 35-142; also called N-terminal domain of human CEACAM1; huCEACAM1-ND; not shown: C-terminal Strep-Tag II
T1 sequence: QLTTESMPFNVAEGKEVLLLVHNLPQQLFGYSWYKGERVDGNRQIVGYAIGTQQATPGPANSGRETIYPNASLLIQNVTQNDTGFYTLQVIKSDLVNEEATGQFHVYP

T2: E. coli expressed human CEACAM1 N-domain (Ec-C1ND) with C-terminal His6 tag, non-glycosylated (human, UniProt P13688 35-142)
T2 construct: range 35-142; also called non-glycosylated N-terminal domain of human CEACAM1; hC1ND
T2 sequence: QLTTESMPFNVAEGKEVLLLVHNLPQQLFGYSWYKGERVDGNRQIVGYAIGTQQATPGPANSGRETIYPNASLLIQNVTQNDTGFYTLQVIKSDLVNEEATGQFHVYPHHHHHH

T3: CEACAM8 (human (species not restated for this …, UniProt P31997))
T3 sequence: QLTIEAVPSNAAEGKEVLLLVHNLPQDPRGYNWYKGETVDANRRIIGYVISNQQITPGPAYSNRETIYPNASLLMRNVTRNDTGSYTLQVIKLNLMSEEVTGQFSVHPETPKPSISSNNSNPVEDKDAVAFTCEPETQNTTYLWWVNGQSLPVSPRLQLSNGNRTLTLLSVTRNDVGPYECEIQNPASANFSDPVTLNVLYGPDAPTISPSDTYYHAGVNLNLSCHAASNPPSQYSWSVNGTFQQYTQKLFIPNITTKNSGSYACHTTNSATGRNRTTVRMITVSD

T4: CEACAM5 (human (species not restated for this …, UniProt P06731))
T4 sequence: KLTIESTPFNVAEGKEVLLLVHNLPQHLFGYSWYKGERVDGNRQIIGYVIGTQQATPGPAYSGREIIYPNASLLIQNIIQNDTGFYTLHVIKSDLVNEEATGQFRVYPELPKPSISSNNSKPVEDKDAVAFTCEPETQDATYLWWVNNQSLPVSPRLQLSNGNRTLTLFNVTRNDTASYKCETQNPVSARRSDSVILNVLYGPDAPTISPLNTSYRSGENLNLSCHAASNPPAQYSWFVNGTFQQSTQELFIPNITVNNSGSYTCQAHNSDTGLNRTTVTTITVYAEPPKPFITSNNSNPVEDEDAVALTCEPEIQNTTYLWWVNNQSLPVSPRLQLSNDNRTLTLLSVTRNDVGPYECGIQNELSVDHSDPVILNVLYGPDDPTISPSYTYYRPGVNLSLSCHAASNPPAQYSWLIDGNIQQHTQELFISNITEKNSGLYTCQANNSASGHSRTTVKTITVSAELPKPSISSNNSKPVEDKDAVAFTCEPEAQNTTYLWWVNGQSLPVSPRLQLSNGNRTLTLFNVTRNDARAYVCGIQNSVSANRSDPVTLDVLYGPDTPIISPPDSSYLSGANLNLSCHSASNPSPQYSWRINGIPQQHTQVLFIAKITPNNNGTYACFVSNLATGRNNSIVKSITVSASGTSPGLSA

B1: HopQ adhesin domain (HopQ^AD), type I HopQ fragment of H. pylori strain G27, residues 37-463 (residu (other)
chain: AVQKVKNADKVQKLSDTYEQLSRLLTNDNGTNSKTSAQAINQAVNNLNERAKTLAGGTTNSPAYQATLLALRSVLGLWNSMGYAVICGGYTKSPGENNQKDFHYTDENGNGTTINCGGSTNSNGTHSYNGTNTLKADKNVSLSIEQYEKIHEAYQILSKALKQAGLAPLNSKGEKLEAHVTTSKYQQDNQTKTTTSVIDTTNDAQNLLTQAQTIVNTLKDYCPILIAKSSSSNGGTNNANTPSWQTAGGGKNSCATFGAEFSAASDMINNAQKIVQETQQLSANQPKNITQPHNLNLNSPSSLTALAQKMLKNAQSQAEILKLANQVESDFNKLSSGHLKDYIGKCDASAISSANMTMQNQKNNWGNGCAGVEETQSLLKTSAADFNNQTPQINQAQNLANTLIQELGNNPFRNMGMIASSTTNNGAHHHHHH
notes: also called HopQ^AD I
B2: HopQ^ADΔID, HopQ^AD in which amino acids 190-218 of the mature protein (the HopQ insertion domain) are replaced by two glycines (other)
chain: AVQKVKNADKVQKLSDTYEQLSRLLTNDNGTNSKTSAQAINQAVNNLNERAKTLAGGTTNSPAYQATLLALRSVLGLWNSMGYAVICGGYTKSPGENNQKDFHYTDENGNGTTINCGGSTNSNGTHSYNGTNTLKADKNVSLSIEQYEKIHEAYQILSKALKQAGLAPLNSKGGGDAQNLLTQAQTIVNTLKDYCPILIAKSSSSNGGTNNANTPSWQTAGGGKNSCATFGAEFSAASDMINNAQKIVQETQQLSANQPKNITQPHNLNLNSPSSLTALAQKMLKNAQSQAEILKLANQVESDFNKLSSGHLKDYIGKCDASAISSANMTMQNQKNNWGNGCAGVEETQSLLKTSAADFNNQTPQINQAQNLANTLIQELGNNPFRNMGMIASSTTNNGAHHHHHH
notes: also called HopQ-ID deletion mutant; mutant HopQ^AD lacking the HopQ-ID

How the values were obtained:
[1] = target: T1, recombinant human CEACAM1 N-domain …; test: isothermal titration calorimetry, 25 °C; ITC in solution, folded glycosylated C1ND; stoichiometry, not affinity
[2] = target: T1, recombinant human CEACAM1 N-domain …; test: ITC; 25 µM C1ND in the cell titrated with 250 µM HopQ^AD, 25 °C
[3] = target: T2, E. coli expressed human CEACAM1 …; test: ITC; 25 µM Ec-C1ND in the cell titrated with 250 µM HopQ^AD, 25 °C
[4] = target: T3, CEACAM8; test: ELISA, panel CEACAM8; protein titrated [cont.) f]
[5] = target: T1, recombinant human CEACAM1 N-domain …; test: isothermal titration calorimetry, 25 °C; ITC in solution, folded glycosylated C1ND (FIG. 8a)
[6] = target: T1, recombinant human CEACAM1 N-domain …; test: ELISA; C1ND coated, HopQ fragment titrated, α-6×His-HRP detection
[7] = target: T4, CEACAM5; test: ELISA, panel CEACAM5; HopQ fragment titrated [cont.) f]
[8] = target: T1, recombinant human CEACAM1 N-domain …; test: ELISA, C1ND coated, His-tag detected

Binder | stoichiometry [1] [HopQ^AD per C1ND] | ΔH [2] [kcal/mol] | ΔS [2] [cal/mol/deg] | Kd [3] [nM] | ΔH [3] [kcal/mol] | ΔS [3] [cal/mol/deg] | binding result [4] | Kd [5] [nM] | EC50 (read off the curve) [6] [µg/well] | EC50 (read off the curve) [7] [µg/well] | fold reduction of binding affinity against HopQ^AD [8] [fold]
B1 | 1 | -13 | -13.7 | 417 | -16.7 | -26.8 | no binding (tested: 10 µg/well) | 296 | ~0.2 | ~0.04 | –
B2 | – | – | – | – | – | – | no binding (tested: 10 µg/well) | – | – | ~0.08 | ~10
